Legend:
[1] = target: ZFP3_Egr1_site3_antisense (VP64); experiment: cell_activity; Klotho protein ELISA in HK-2; also active in HEK293 4 kb promoter reporter; conditions: tags: NLS, VP64, HA
Experimental: (§1) ELISA components were purchased from IBL and assays were performed according to the manufacturers instructions.
(§2) Klotho is largely expressed in the brain and kidney, and so further investigations were made using cell lines derived from those organs. The ZFPs were transfected into HK-2 cells and Klotho protein levels were measured.

[2] = target: ZFP3_Egr1_site3_antisense_VPR; experiment: cell_activity; Klotho ELISA in HK-2; conditions: tags: NLS, VP64-p65-Rta, HA, V5, His
Experimental: as §1, §2

[3] = target: ZFP52_VPR; experiment: cell_activity; Klotho ELISA in HK-2; conditions: tags: NLS, VP64-p65-Rta, HA, V5, His
Experimental: as §1, §2

[4] = target: ZFP52 (VP64); experiment: cell_activity; Klotho ELISA in HK-2; conditions: tags: NLS, VP64, HA
Experimental: as §1, §2

Sequence of ZFP52_VPR (chain, as listed by the source): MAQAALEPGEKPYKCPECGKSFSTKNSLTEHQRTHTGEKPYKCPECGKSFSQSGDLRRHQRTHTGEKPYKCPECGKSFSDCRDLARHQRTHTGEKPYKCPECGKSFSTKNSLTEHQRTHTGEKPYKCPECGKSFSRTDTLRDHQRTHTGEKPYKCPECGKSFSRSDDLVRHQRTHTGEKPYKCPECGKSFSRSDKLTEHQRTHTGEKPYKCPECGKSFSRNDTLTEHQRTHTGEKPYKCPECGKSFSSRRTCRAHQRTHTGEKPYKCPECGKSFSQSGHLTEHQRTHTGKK
Sequence of ZFP3_Egr1_site3_antisense_VPR (chain, as listed by the source): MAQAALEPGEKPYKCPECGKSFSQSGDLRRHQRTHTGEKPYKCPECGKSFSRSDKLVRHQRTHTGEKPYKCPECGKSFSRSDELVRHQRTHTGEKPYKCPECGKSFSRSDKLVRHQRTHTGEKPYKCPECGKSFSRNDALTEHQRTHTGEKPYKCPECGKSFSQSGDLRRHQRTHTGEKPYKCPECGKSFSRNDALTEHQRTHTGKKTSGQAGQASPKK

B1: ZFP3_Egr1_site3 target (dsDNA)
DNA 1: CTGGCACTGGGGGTGGGGGCA
DNA 2: TGCCCCCACCCCCAGTGCCAG
activity [1]: ~3 fold
activity [2]: ~3 fold

B2: ZFP52 target (dsDNA)
DNA 1: CGACGTCCGCGGGCGACGCCTGCCGCACCT
DNA 2: AGGTGCGGCAGGCGTCGCCCGCGGACGTCG
activity [3]: ~5 fold
activity [4]: ~2 fold
